This note sets out measurements from paper PMC11955521, “A GTP-driven central carbon metabolism in the cellulolytic bacterium Ruminiclostridium cellulolyticum” (Communications Biology, 2025).

Substrate in data set [1]: CC(=O)O
The experiment in a line: purified protein. The note with it: reverse reaction, ATP 10 mM, 20 mM MgCl2, 25 mM HEPES pH 7.0, 37 °C.

Substrate in data set [2]: Nc1ncnc2c1ncn2[C@@H]1O[C@H](COP(=O)(O)OP(=O)(O)O)[C@@H](O)[C@H]1O
The experiment in a line: HPLC-RI of products. The class given is biochemical, Ruminiclostridium cellulolyticum. The note with it: acetyl-P 5 mM, 20 mM MgCl2, 25 mM HEPES pH 7.0, 37 °C. From the text:
(§1) HPLC-RI of products on Acetate kinase (AK)

Substrate in data set [3]: Nc1ncnc2c1ncn2[C@@H]1O[C@H](COP(=O)(O)OP(=O)(O)OP(=O)(O)O)[C@@H](O)[C@H]1O
The experiment in a line: HPLC-RI of products. As to conditions: reverse reaction, acetate 10 mM, 20 mM MgCl2, 25 mM HEPES pH 7.0, 37 °C. The class given is biochemical, Ruminiclostridium cellulolyticum.
Source text: as §1

Substrate in data set [4]: CC(=O)OP(=O)(O)O
Description: HPLC-RI of products. As to conditions: ADP 10 mM, 20 mM MgCl2, 25 mM HEPES pH 7.0, 37 °C. The class given is biochemical, Ruminiclostridium cellulolyticum.
Source text: as §1

Substrate in data set [5]: Nc1nc2c(ncn2[C@@H]2O[C@H](COP(=O)(O)OP(=O)(O)O)[C@@H](O)[C@H]2O)c(=O)[nH]1
Description: HPLC-RI of products. It counts as biochemical, Ruminiclostridium cellulolyticum. The note with it: acetyl-P 5 mM, 20 mM MgCl2, 25 mM HEPES pH 7.0, 37 °C.
Source text: as §1

Substrate in data set [6]: Nc1nc2c(ncn2[C@@H]2O[C@H](COP(=O)(O)OP(=O)(O)OP(=O)(O)O)[C@@H](O)[C@H]2O)c(=O)[nH]1
Description: HPLC-RI of products. The note with it: xylulose 2.5 mM, 20 mM MgCl2, 25 mM HEPES pH 7.0, 37 °C. The class given is biochemical, Ruminiclostridium cellulolyticum. From the text:
(§2) HPLC-RI of products on Xylulokinase (XK)

Substrate in data set [7]: Nc1ncnc2c1ncn2[C@@H]1O[C@H](COP(=O)(O)OP(=O)(O)OP(=O)(O)O)[C@@H](O)[C@H]1O
Description: HPLC-RI of products. The class given is biochemical, Ruminiclostridium cellulolyticum. As to conditions: xylulose 2.5 mM, 20 mM MgCl2, 25 mM HEPES pH 7.0, 37 °C.
Source text: as §2

Substrate in data set [8]: O=C(CO)[C@@H](O)[C@H](O)CO
The experiment in a line: HPLC-RI of products. It counts as biochemical, Ruminiclostridium cellulolyticum. As to conditions: GTP 10 mM, 20 mM MgCl2, 25 mM HEPES pH 7.0, 37 °C.
Source text: as §2

Substrate in data set [9]: Nc1ncnc2c1ncn2[C@@H]1O[C@H](COP(=O)(O)OP(=O)(O)OP(=O)(O)O)[C@@H](O)[C@H]1O
Description: HPLC-RI, glucose consumption. It counts as biochemical, Escherichia coli. As to conditions: glucose 5 mM, 20 mM MgCl2, 25 mM HEPES pH 7.0, 37 °C.

Substrate in data set [10]: Nc1ncnc2c1ncn2[C@@H]1O[C@H](COP(=O)(O)OP(=O)(O)O)[C@@H](O)[C@H]1O
The experiment in a line: HPLC-RI of pyruvate. The class given is biochemical, Ruminiclostridium cellulolyticum. As to conditions: PEP 10 mM, no FBP, 20 mM MgCl2, 30 mM KCl, 25 mM HEPES pH 7.0, 37 °C, Hill fit, nH 1.41. From the text: (§3) HPLC-RI of pyruvate on Pyruvate kinase (PK)

Substrate in data set [11]: C=C(OP(=O)(O)O)C(=O)O
Description: HPLC-RI of pyruvate. It counts as biochemical, Ruminiclostridium cellulolyticum. The note with it: ADP 5 mM, no FBP, 20 mM MgCl2, 30 mM KCl, 25 mM HEPES pH 7.0, 37 °C, Hill fit, nH 1.32.
Source text: as §3

Substrate in data set [12]: Nc1nc2c(ncn2[C@@H]2O[C@H](COP(=O)(O)OP(=O)(O)O)[C@@H](O)[C@H]2O)c(=O)[nH]1
Description: HPLC-RI of pyruvate. It counts as biochemical, Ruminiclostridium cellulolyticum. As to conditions: PEP 10 mM, no FBP, 20 mM MgCl2, 30 mM KCl, 25 mM HEPES pH 7.0, 37 °C.
Source text: as §3

Substrate in data set [13]: Nc1ncnc2c1ncn2[C@@H]1O[C@H](COP(=O)(O)OP(=O)(O)O)[C@@H](O)[C@H]1O
Description: purified protein. The note with it: forward, 3 mM glyceraldehyde-3-P, 1.1 mM NAD+, 10 mM MgCl2, 50 mM phosphate pH 7.0, 15 mM cysteine, 37 °C, 1,3-BPG concentration unknown, Hill fit, nH 4.03. The class given is biochemical, Ruminiclostridium cellulolyticum.

Substrate in data set [14]: Nc1nc2c(ncn2[C@@H]2O[C@H](COP(=O)(O)OP(=O)(O)O)[C@@H](O)[C@H]2O)c(=O)[nH]1
Description: purified protein. The note with it: forward, 3 mM glyceraldehyde-3-P, 1.1 mM NAD+, 10 mM MgCl2, 50 mM phosphate pH 7.0, 15 mM cysteine, 37 °C, 1,3-BPG concentration unknown, Hill fit, nH 1.63. The class given is biochemical, Ruminiclostridium cellulolyticum.

Substrate in data set [15]: Nc1nc2c(ncn2[C@@H]2O[C@H](COP(=O)(O)OP(=O)(O)OP(=O)(O)O)[C@@H](O)[C@H]2O)c(=O)[nH]1
Description: GAPDH-coupled NADH oxidation. The class given is biochemical, Ruminiclostridium cellulolyticum. The note with it: reverse, 3-PG 25 mM, 0.3 mM NADH, 10 mM MgCl2, 50 mM phosphate pH 7.0, 15 mM cysteine, 37 °C.

Substrate in data set [16]: Nc1ncnc2c1ncn2[C@@H]1O[C@H](COP(=O)(O)OP(=O)(O)OP(=O)(O)O)[C@@H](O)[C@H]1O
The experiment in a line: GAPDH-coupled NADH oxidation. As to conditions: reverse, 3-PG 4 mM, 0.3 mM NADH, 10 mM MgCl2, 50 mM phosphate pH 7.0, 15 mM cysteine, 37 °C. It counts as biochemical, Ruminiclostridium cellulolyticum.

B1: Acetate kinase (AK) (Ruminiclostridium cellulolyticum H10) (protein)
chain: MKVLVINAGSSSLKYQLIDMKNETVLAKGLCDRIGIDNSFIKQSRGSEEAVILNKELKNHKDAIEAVISALTDDNMGVIKNMSEISAVGHRIVHGGEKFNSSVVIDENVMNAVRECIDVAPLHNPPNIIGIEACQQIMPNIPMVAVFDTTFHSSMPDYAYLYALPYELYEKYGIRKYGFHGTSHKYVAERASAMLDKSLNELKIITCHLGNGSSICAVNKGKSIDTSMGFTPLQGLAMGTRSGTIDPEVVTFLMEKENLDVKGVSKLLNKKSGVLGISGVSSDFRDLHAAADAGNSRAELAIEIFCYGVKKFIGEYIAVMNGVDAIVFTAGVGENNSVVRNMIISDMDFLGIKIDEEKNKLRGQEVDISTADAAVRTLVIPTNEELAIARETVRLVK
notes: full-length, C-terminal His tag (pET28a), E. coli BL21(DE3), Ni-NTA and anion exchange
The term Km denotes the concentration of substrate that gives half-maximal velocity. Consider B1, for which the Km was found to be 2370 ± 380 µM in the data set “purified protein [1]”; 1130 ± 210 µM in “HPLC-RI of products [2]”; 1470 ± 170 µM in the data set “HPLC-RI of products [3]”; 1490 ± 200 µM in “HPLC-RI of products [4]”; 1470 ± 130 µM in the data set “HPLC-RI of products [5]”. The kcat result in “purified protein [1]” is “kcat = 12.85 ± 0.85 iu/umol”; in the data set “HPLC-RI of products [2]” it was 25,437 ± 1668 iu/µmol; in “HPLC-RI of products [3]”, 16.68 ± 0.74 iu/µmol; in the data set “HPLC-RI of products [4]”, 25,112 ± 1755 iu/µmol; in the data set “HPLC-RI of products [5]” it was 35,365 ± 1,150 iu/µmol.

B2: Xylulokinase (XK) (Ruminiclostridium cellulolyticum H10) (protein)
chain: MSFLIGIDLGTSGVKTVLFDEAGKPVASSTVEYPLYQPNLGWAEQDPEEWWKGTCESINNVMLKSGVDKREVKGIGLSGQMHGAVLLDKDDKVLRNAIIWCDQRSAAECDEITDLIGRERLIEITANPALTGFTASKIMWVKNNEPQIFEKIAKILLPKDYIRFRLTGEYATEVSDASGMQLMNIAKREWSIEVLDKLGLSTSMLGKMYESQEVTGKVTSSAADQTGLNAGTIVVGGGGDQAAGAVGNGIVKSGIVSSTIGTSGVVFAYTDKLTIDPLGRVHTFCHAVPNTYHVMGVTQGAGLSLKWFRDNFCMEEMMTSELSDIDVYKLLDAEAETIKPCSDGLVYLPYLMGERTPHLDPNAKGVFFGLTAKHTKPHFIRSIMEGVTFSLRDCLEIIKGMGVDVSEVRASGGGGKSGIWRQMQADVFGTNINRIRSDEGPALGVAILAGVGAGIYDSVPQACEEVIKVKDTLAPVEDRIKKYDDFYKLYTKLYKSLKDDFNQLSTILK
notes: as for B1
Consider B2, for which the values for the Km in “HPLC-RI of products [6]”, in the data set “HPLC-RI of products [7]” and in “HPLC-RI of products [8]” were 120 ± 20 µM, 1180 ± 180 µM and 300 ± 70 µM, respectively. In addition, the kcat in “HPLC-RI of products [6]” turned out to be 6540 ± 177 iu/µmol; in “HPLC-RI of products [7]”, 6653 ± 281 iu/µmol; in “HPLC-RI of products [8]” it was 8788 ± 375 iu/µmol.

B3: E. coli glucokinase (GLK) (Escherichia coli K-12) (protein)
chain: MTKYALVGDVGGTNARLALCDIASGEISQAKTYSGLDYPSLEAVIRVYLEEHKVEVKDGCIAIACPITGDWVAMTNHTWAFSIAEMKKNLGFSHLEIINDFTAVSMAIPMLKKEHLIQFGGAEPVEGKPIAVYGAGTGLGVAHLVHVDKRWVSLPGEGGHVDFAPNSEEEAIILEILRAEIGHVSAERVLSGPGLVNLYRAIVKADNRLPENLKPKDITERALADSCTDCRRALSLFCVIMGRFGGNLALNLGTFGGVFIAGGIVPRFLEFFKASGFRAAFEDKGRFKEYVHDIPVYLIVHDNPGLLGSGAHLRQTLGHIL
notes: full-length, C-terminal His tag (pET22b+), E. coli BL21(DE3), Ni-NTA and anion exchange
For the protein B3, in data set [9], the Michaelis-Menten constant (Km) is 2470 ± 390 µM.

B4: Pyruvate kinase (PK) (Ruminiclostridium cellulolyticum H10) (protein)
chain: MRRTKIICTLGPASDNEDILRKMMLGGMSLARMNFSHGTHEEHKKRADLVKKIREELNLPIPLLLDTKGPEIRTGKFKNDQAILKENNEFILVNEDILGDETKCTITYKELYKDVSRGSKILINDGLVELEVTEIKNKDIYCRVLNGGAVGNHKGINVPGAEIKLPSLTEQDIDDIKFGIKNDFDIIAASFVRKASDVVEIRKVLEKNGGKDILIIAKIENREGIKNFNDILKVSDGIMVARGDLGVEIPVEEVPIVQKNIIEKCYQNGKPVITATQMLDSMIRNPRPTRAEASDVANAIFDGTSCVMLSGETAAGKYPIETIEVMAKIAEKAEKSMDYWNRFATARTELDTSVTNAISHATCTTALDLKAAAIITVTQSGHTARMIARFRPACPIIATTANPKVQRQLNLSWGVMPYLVGIAKTTDDMFDNGVEKALESGLVKNGDLAVITAGMPAGISGTTNTLKVHIVGRVLVQGVGIGTSSVTGELCVAQNTKEAMDKFTDGNIIVAPFTDNSMLPVIKRASAIVVEEHGQSCHAATVGLALDIPVILGAENATKILKAGSVVTVDSERGLVIRCN
notes: as for B1
As for B4, the Km in “HPLC-RI of pyruvate [10]” was 1870 ± 140 µM; in “HPLC-RI of pyruvate [11]” it was 1560 ± 20 µM; in the data set “HPLC-RI of pyruvate [12]”, 900 ± 140 µM. For the same protein, the kcat in the data set “HPLC-RI of pyruvate [10]” is recorded as 9508 ± 328 iu/µmol; in “HPLC-RI of pyruvate [11]” it was 9212 ± 50 iu/µmol; in “HPLC-RI of pyruvate [12]”, 977 ± 48 iu/µmol.

B5: Phosphoglycerate kinase (PGK) (Ruminiclostridium cellulolyticum H10) (protein)
chain: MSMMNKKTIEDIDVAGKRVIVRVDFNVPLDENRKITDDKRIVGALPTIKYLVDKGAKTILVSHLGRPKEGFEDKFSMKPTAVRLGELLGKEIIMAKDVVGEDAKSKAAALKDGEVLMLENVRFHKEETKNDANFAKELASMAEIFVNDAFGTAHRAHASTAGLADYLPAVCGFLIKKEIEFMGKALANPARPFVAILGGAKVSDKIAVIENLIDKVDTLIIGGGMAYTFLKAKGYHIGNSICEEDKIDLAKTLMEKAEAKGVEIMLPIGSMVAQEFKNDTEIKYVPSDAMPDGWMGMDIGSLTIENFAKEIKKAKTVIWNGPMGVFEFPNFATGTKEIAKAVAESGALSIVGGGDSAAAVEQLGFADKITHISTGGGASLEFLEGKELPGIAVLMDKNPRKVIAAGNWKMNKTASEAVEFVNALKPAVADAKNEVVVGVPFVCLPGVVAAAKGSNIKVAAQNMHWEEKGAFTGEVSGPMLADLGVDYVIIGHSERREYFGETNEMINKKAHAIFKYGMTPIICCGETLTQREQGVTADHIRYQIKVALLDLTAEQVSKLVIAYEPIWAIGTGKTATNEQANEVCTIIRELVAELYGSEVAEHVRIQYGGSVNAKNATELFAMSDIDGGLVGGASLKVEDFSIIAKA
notes: full-length, C-terminal His tag (pET28a), E. coli BL21(DE3), Ni-NTA, anion exchange, gel filtration
For B5, the Km in the data set “purified protein [13]” was found to be 80 ± 2 µM; in “purified protein [14]” it was 135 ± 8 µM; in data set [15] it was 4660 ± 1240 µM; in data set [16], 480 ± 70 µM. Moreover, the kcat in the data set “purified protein [13]” is reported as 733 ± 12 iu/µmol; in the data set “purified protein [14]”, 771 ± 20 iu/µmol; in data set [15], 2831 ± 348 iu/µmol; in data set [16], “kcat = 4256 ± 148 iu/umol”.
